The values below come from the RNAGym collection of RNA variant scans (doi:10.7554/elife.80360).

B1: HDV Ribozyme (parent)
chain: GGCCGGCAUGGUCCCAGCCUCCUCGCUGGCGCCGGCUGGGCAACAUUCCGAGGGGACCGUCCCCUCGGUAAUGGCGAAUGGGACCCA

In the data set the parent is B1. Description: self-cleavage, relative activity (ratio to wild type); higher = more cleavage; co-transcriptional.
Regarding U9C C32A, the self-cleavage amounted to 0.
In the case of U9C C32U it was 0.862; in that of U9C C75U, 0.138.
Consider U9C C75A, for which the self-cleavage is 0.115.
Consider U9A U69C, for which the self-cleavage was 0.802.
In the case of U9A U69A, the self-cleavage amounted to 0.87.
As for U9C C14A, the figure is 0.982; as for U9A C63U, 1.19; as for U9A U12G, 1.06.
With U9A U37C, the self-cleavage amounted to 1.07.
For the variant U9A C75G, the self-cleavage amounted to 0.0665.
Regarding U9A G29U, the self-cleavage was 0.0639.
On to U9A G29A, for which the self-cleavage came to 0.0678.
Turning to U9A G38U, the self-cleavage was found to be 0.237.
As for U9A G38C, the figure is 0.237; as for U9A G38A, 0.233; as for U9A C66A, 0.95.
Regarding U9C A56G, the self-cleavage was found to be 0.935.
In the case of U9C A56U it was 1.04; in that of U9C G28U, 0.123; in that of U9C G28C, 0.0573.
As for U9A G31U, the figure is 0.208.
Regarding U9A G31A, the self-cleavage worked out at 0.554.
As for U9C C64U, the figure is 0.923.
As for U9C A42C, the figure is 0.475.
Take U9C A42G: the self-cleavage turned out to be 0.886.
In the case of U9C C15A, the self-cleavage was 0.748.
On to U9C C15U, for which the self-cleavage was 0.776.
As for U9A G10U, the self-cleavage worked out at 0.855.
In the case of U9A G10C it was 0.875; in that of U9A C62G, 0.939.
Regarding U9A C62A, the self-cleavage was found to be 1.03.
Regarding U9C C33U, the self-cleavage came to 0.895.
Regarding U9C C66G, the self-cleavage turned out to be 1.04.
As for U9A G76C, the figure is 1.07; as for U9A G76A, 0.955.
As for U9A G67A, the figure is 0.937.
In the case of U9A G67U it was 0.849.
Take U9A U65G: the self-cleavage was 1.11.
For the variant U9A U65A, the self-cleavage worked out at 1.05.
As for U9C C62G, the figure is 0.166.
Regarding U9C A71C, the self-cleavage worked out at 0.791.
As for U9C A71U, the figure is 0.969; as for U9C C44U, 0.739.
As for U9C C44A, the figure is 0.594; as for U9C G50C, 0.886; as for U9C G50U, 1.02.
In the case of U9C C26A, the self-cleavage turned out to be 1.25.
For the variant U9A C61G, the self-cleavage worked out at 0.682.
For U9A C61U, the self-cleavage was 0.986.
For the variant U9C G38C, the self-cleavage was determined as 0.107.
As for U9A U47C, the figure is 0.997.
As for U9A C85U, the figure is 0.906.
In the case of U9A G80C it was 0.189.
With U9A G80A, the self-cleavage is 0.402.
As for U9A U46A, the figure is 0.743; as for U9C G39C, 0.287.
On to U9C A51G, for which the self-cleavage was determined as 0.962.
U9A C84A: the self-cleavage was determined as 0.886.
Regarding U9A C84G, the self-cleavage came to 0.554.
On to U9C G11U, for which the self-cleavage came to 0.383.
In the case of U9C G11C it was 0.266; in that of U9C C19G, 0.0519.
As for U9C C19U, the figure is 0.208; as for U9C C58U, 0.886.
With U9C C58A, the self-cleavage was 1.11.
As for U9C C86U, the figure is 1.35.
In the case of U9C C86G it was 1.14; in that of U9C G10U, 0.731; in that of U9A G39A, 0.665.
U9C C57A: the self-cleavage was found to be 1.09.
As for U9C C36G, the self-cleavage turned out to be 0.
For the variant U9A G53A, the self-cleavage amounted to 1.2.
In the case of U9A G53U, the self-cleavage was determined as 1.28.
As for U9C C61A, the figure is 1.03.
As for U9C C61U, the figure is 0.81; as for U9C A45G, 0.95.
For the variant U9C C48U, the self-cleavage came to 0.748.
U9C C48G: the self-cleavage turned out to be 1.44.
Turning to U9A G28C, the self-cleavage came out at 0.
In the case of U9A G28U it was 0.0898; in that of U9C C30G, 0.0462; in that of U9A G68A, 0.955.
In the case of U9A G68C it was 1.16.
In the case of U9A G68U it was 1.08; in that of U9C A87C, 0.813; in that of U9A G40A, 1.02.
Regarding U9A G40U, the self-cleavage stood at 0.897.
In the case of U9A G55C it was 1.26.
As for U9A G81U, the figure is 0.332; as for U9C G31C, 0.598.
As for U9C C41U, the self-cleavage was found to be 1.05.
Consider U9C A77C, for which the self-cleavage stood at 0.364.
As for U9C A16U, the self-cleavage was 1.08.
As for U9C A16C, the figure is 0.519; as for U9A U27G, 1.13.
For the variant U9A G11C, the self-cleavage was 0.609.
In the case of U9A G11A it was 0.539.
In the case of U9A G34U, the self-cleavage was 0.374.
As for U9A G54U, the figure is 1.06; as for U9A G54C, 0.935.
On to U9C A83G, for which the self-cleavage worked out at 0.665.
Take U9C A83U: the self-cleavage was 0.525.
As for U9A G50C, the figure is 0.898; as for U9A G50U, 1.31; as for U9A G50A, 1.12.
Take U9A G25U: the self-cleavage was determined as 0.175.
As for U9A G25A, the figure is 0.426; as for U9C C13G, 0.158; as for U9C C13U, 0.453.
As for U9C C13A, the figure is 0.158.
With U9A G74U, the self-cleavage came out at 0.585.
As for U9A G74C, the figure is 0.0573.
On to U9C A78G, for which the self-cleavage stood at 0.914.
Regarding U9C A78U, the self-cleavage turned out to be 0.185.
As for U9A G35A, the self-cleavage is 0.665.
In the case of U9A G35C it was 0.44; in that of U9A U72G, 0.787.
In the case of U9A U72C it was 0.688.
As for U9C G40A, the figure is 0.997; as for U9C G40C, 0.135; as for U9A C64U, 1.04.
As for U9A C64G, the self-cleavage was 0.759.
With U9A U20C, the self-cleavage stood at 0.128.
For the variant U9A U20G, the self-cleavage was 0.151.
In the case of U9A U20A it was 0.185.
Take U9C C85U: the self-cleavage was 1.07.
As for U9C C85G, the figure is 0.731; as for U9C G17U, 0.914; as for U9C G17C, 0.415.
U9C G17A: the self-cleavage came out at 1.08.
In the case of U9A C58U it was 0.77.
Turning to U9A C58A, the self-cleavage came to 0.789.
In the case of U9A C58G, the self-cleavage was determined as 0.929.
As to U9C G25C, the self-cleavage turned out to be 0.0615.
In the case of U9C G25A, the self-cleavage turned out to be 0.277.
For the variant U9A U60A, the self-cleavage amounted to 0.923.
U9C C21A: the self-cleavage was 0.0639.
With U9C C21U, the self-cleavage amounted to 0.214.
In the case of U9C C21G it was 0.277; in that of U9C A43U, 0.378.
Take U9C A43C: the self-cleavage was found to be 0.378.
Turning to U9A G17C, the self-cleavage worked out at 0.297.
With U9A G17U, the self-cleavage is 0.383.
In the case of U9A G52A it was 0.99.
Consider U9C C22U, for which the self-cleavage came out at 0.727.
U9C C22G: the self-cleavage amounted to 0.
As for U9C C49A, the figure is 0.703.
In the case of U9C C49U it was 0.959; in that of U9C C49G, 1.03; in that of U9C A70C, 0.997.
As for U9C G52C, the figure is 1.02; as for U9C C84U, 0.415.
For the variant U9C G53A, the self-cleavage was found to be 1.01.
For U9A G73U, the self-cleavage came out at 0.244.
Regarding U9A G73A, the self-cleavage worked out at 0.425.
As for U9A G73C, the figure is 0.227.
In the case of U9A U79C it was 0.237.
In the case of U9A U79G it was 0.529; in that of U9A U23G, 0.7.
Consider U9A G59A, for which the self-cleavage came to 1.19.
Take U9A G59C: the self-cleavage stood at 1.03.
In the case of U9A G82A it was 0.425; in that of U9A G82U, 0.375; in that of U9C C18U, 0.457.
As for U9C C18A, the figure is 0.128; as for U9C C18G, 0.138.
